Source: patent US20210388074A1 (LUDWIG INSTITUTE FOR CANCER RESEARCH, published 2021)
Changes are numbered by the printed parent chain. Numbers in names are those of the source.

Tests used:
[1] = target: T1, TGFb3 (species not stated) (UniProt P10600 301-412); assay: Biacore single-cycle kinetics
T1 chain: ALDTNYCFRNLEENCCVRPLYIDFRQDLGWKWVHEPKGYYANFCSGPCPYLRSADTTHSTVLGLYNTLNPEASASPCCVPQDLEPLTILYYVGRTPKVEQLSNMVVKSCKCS

[2] = target: T2, TGFb3 (species not stated) (Homo sapiens (Human), UniProt P10600 301-412); assay: SPR (Biacore), single-cycle kinetics; TGFb3 immobilized directly, Fab as soluble analyte
T2 construct: also called TGFβ3; TGF-β3
T2 sequence: T1 chain
Procedure: TGFb3 immobilized directly; Fab as soluble analyte (0 2.5 nM). Single cycle kinetics were conducted as follows Contact: 360 s; Dissociation: 500 s; Flow rate: 30 μl/min.
Binding affinities of the Fabs were in the pM range.

[3] = target: T3, human recombinant TGF-b3 (Shenandoah Biotechnology, cat. #100-109) (human, UniProt P10600 301-412); assay: ELISA; scFv culture on plate-coated TGF-b3, anti-cmyc detection
T3 construct: Bought recombinant protein, coated on ELISA plates; also called TGF-β3; hTGF-ß3
T3 sequence: T1 chain
Procedure: (§1) To perform the ELISA a 96-well maxisorp Nunc-immunoplate (Thermo Scientific, cat. #2022-10) was coated with 50 μl/well of human recombinant TGF-b1 (Acrobiosystems, cat. #TG1-H4212), TGF-b2 (R&D Systems, cat. #302-B2-010) and human recombinant TGF-b3 (Shenandoah Biotechnology, cat. #100-109) at 500 ng/ml in PBS at 4° C. overnight. Wells were blocked by the direct addition of 230 μl of block solution (5% skimmed milk/0.05% Tween20 in PBS) without first washing the plate. Blocking was carried out for 45 min with gentle agitation. Concurrently, the bacterial cultures containing the expressed scFv and the rescued phage were blocked by the direct addition of 120 μl of block solution. The blocked maxisorp plate was washed 3× with PBST (PBS+0.1% Tween20) before applying 150 μl of blocked scFv or phage culture to the wells. Incubation was performed for 1 h at room temperature with gentle agitation before washing of the wells with 4×PBST.
(§2) For the scFv ELISA, 100 μl of primary mouse 9E10 anti-cmyc Ab diluted 1/1000 in PBS+1% BSA was added to wells, followed by a 1 h incubation at room temperature with gentle agitation. […] The ELISA was developed by the addition of 100 μl/well of TMB substrate (ThermoFischer Scientific, cat. #34021), stabilized with 50 μl/well of stop solution (2N sulfuric acid) and absorbance signals read at 450 nm and 620 nm.

[4] = target: T3, human recombinant TGF-b3 (Shenandoah …); assay: competition ELISA on hTGF-ß3-coated plate; competitor biotinylated murine 1901
Procedure: Nunc Maxisorb ELISA plates were coated overnight at 8° C. with 0.5 μg/ml hTGF-ß1 (Peter Sun, NIH) or hTGF-ß3 (Shenandoah Biotech) at 0.5 μg/ml in 40 mM glycine buffer pH 9. Plates were washed and blocked with 10% FCS for 1 h at 37° C. […] After incubation for 2h at 37° C. plates were washed, Avidine-HRP added and incubated for 1 h at 37° C. Plates washed again, TMB substrate was added and bound biotinylated antibody was quantitated by measuring color development in an ELISA reader at a wave length of 450 nm.
The potency of the humanized LCR1901 IgG4 antibody variants to compete with the parental murine antibody for binding to TGFb3 was assessed by ELISA.

[5] = target: T3, human recombinant TGF-b3 (Shenandoah …); assay: phage ELISA on plate-coated TGF-b3, anti-fd bacteriophage detection
Procedure: as §1
For the phage ELISA, 100 μl of primary rabbit anti-fd bacteriophage Ab (Sigma, cat. #B7786) diluted 1/1000 in PBS+1% BSA was added to wells followed by a 1 h incubation at room temperature with gentle agitation. The plate was washed 4× with PBST before the addition of 100 μl of secondary mouse anti-rabbit IgG (Υ-chain specific) HRP conjugate (Sigma, cat. #A1949) diluted 1/15000 in PBS+1% BSA. […]

[6] = target: T3, human recombinant TGF-b3 (Shenandoah …); assay: ELISA; scFv culture on plate-coated TGF-b3
Procedure: as §1, §2

[7] = target: T3, human recombinant TGF-b3 (Shenandoah …); assay: TGFβ specificity ELISA; HEK293-6E supernatant

B1: 1901-1D Fab (LCR1901_VH_1G10m_03(K)-LCR1901_VK_GLv1_03(F) expressed as Fab) (Fab, V domains shown)
VH: QVQLVQSGAEVKKPGSSVKVSCKASGYTFSSSWIHWVKQRPGKGLEWIGRIYPGDGDTDYSEKFQGRVTITADKSTSTAYMELSSLRSEDTAVYYCARRMITTQAALDYWGQGTLVTVSS
VL: DIQMTQSPSSLSASVGDRVTITCKASQSVINAVAWYQQKPGQSPKLLIYYASNRYTGVPDRFSGSGYGTDFTFTISSLQAEDVAVYYCQQDYSSPYTFGGGTKVEIK
[1]
  Kd: 0.364 nM
[2]
  binding result: binds

B2: 1901-1C Fab (LCR1901_VH_1G10m-LCR1901_VK_GLv1_03(F) expressed as Fab) (Fab, V domains shown)
VH: B1 VH with K38R, R40A, K43Q
VL: B1 VL
[1]
  Kd: 0.3 nM
[2]
  binding result: binds

B3: 1901-1B Fab (LCR1901_VH_1G10m_03(K)-LCR1901_VK_GLv1_05(H) expressed as Fab) (Fab, V domains shown)
VH: B1 VH
VL: B1 VL with Q42K, S43A
[1]
  Kd: 0.285 nM

B4: LCR1901_scFv (murine 1901 VH and VL reformatted as soluble scFv) (scFv)
scFv: SFVMTQTPKFLLVSAGDRVTITCKASQSVINAVAWYQQKPGQSPKLLIYYASNRYTGVPDRFTGNGYGTDFTFTISTVQAEDLAVYFCQQDYSSPYTFGGGTKLEIKRTVAARQEGGSGEGGSGESNAAAQVLLQQSGPELVKPGASVKISCKASGYAFSSSWIHWVKQRPGKGLEWIGRIYPGDGDTNYTGKFKGKATLTADKSSSTAYMQLSSLTSEDSAVYFCARRMITTQAAMDYWGQGTSVTVSSASTKAS
notes: Expressed in E. coli from pCHV101 and tested as culture; also called LCR1901_soluble scFv; parental soluble scFv
[3]
  binding result: binds

B5: 1901-1A, LCR1901_VH_1G10m-LCR1901_VK_GLv1_05(H), human IgG4 (S228P) (antibody, V domains shown)
VH: B1 VH with K38R, R40A, K43Q
VL: DIQMTQSPSSLSASVGDRVTITCKASQSVINAVAWYQQKPGKAPKLLIYYASNRYTGVPDRFSGSGYGTDFTFTISSLQAEDVAVYYCQQDYSSPYTFGGGTKVEIKR
notes: the latter are used; also called LCR1901-1A
[4]
  binding result: binds

B6: 1901-1C, LCR1901_VH_1G10m-LCR1901_VK_GLv1_03(F), human IgG4 (S228P) (antibody, V domains shown)
VH: B1 VH with K38R, R40A, K43Q
VL: B5 VL with K42Q, A43S
notes: also called LCR1901-1C
[4]
  binding result: binds

B7: 1901-1D, LCR1901_VH_1G10m_03(K)-LCR1901_VK_GLv1_03(F), human IgG4 (S228P) (antibody, V domains shown)
VH: B1 VH
VL: B5 VL with K42Q, A43S
notes: the latter are used; also called LCR1901-1D
[4]
  binding result: binds

B8: 1901-1A Fab (LCR1901_VH_1G10m-LCR1901_VK_GLv1_05(H) expressed as Fab) (Fab, V domains shown)
VH: B1 VH with K38R, R40A, K43Q
VL: B1 VL with Q42K, S43A
[2]
  binding result: binds

B9: LCR1901_Phage (murine 1901 scFv fused to the pIII coat protein of filamentous bacteriophage) (scFv)
scFv: B4 scFv
notes: not shown: pIII coat protein of filamentous bacteriophage from the pCHV101 phagemid
[5]
  binding result: binds

B10: LCR1901_GLv1_scFv (murine 1901 CDRs grafted onto IGKV1-39*01/IGHV1-69*08, scFv) (scFv)
scFv: DIQMTQSPSSLSASVGDRVTITCKASQSVINAVAWYQQKPGKAPKLLIYYASNRYTGVPSRFSGSGSGTDFTLTISSLQPEDFATYYCQQDYSSPYTFGGGTKLEIKRTVAARQEGGSGEGGSGESNAAAQVQLVQSGAEVKKPGSSVKVSCKASGYAFSSSWIHWVRQAPGQGLEWIGRIYPGDGDTNYTGKFKGRVTITADKSTSTAYMELSSLRSEDTAVYYCARRMITTQAAMDYWGQGTSVTVSSASTKAS
notes: Expressed in E. coli from pCHV101
[6]
  binding result: binds

B11: 1901_Chimeric (mouse 1901 variable domains fused to human IgG1 Fc) (antibody, V domains shown)
VH: QVLLQQSGPELVKPGASVKISCKASGYAFSSSWIHWVKQRPGKGLEWIGRIYPGDGDTNYTGKFKGKATLTADKSSSTAYMQLSSLTSEDSAVYFCARRMITTQAAMDYWGQGTSVTVSS
VL: SFVMTQTPKFLLVSAGDRVTITCKASQSVINAVAWYQQKPGQSPKLLIYYASNRYTGVPDRFTGNGYGTDFTFTISTVQAEDLAVYFCQQDYSSPYTFGGGTKLEIK
notes: Tested as HEK293-6E supernatant; also called murine chimeras
[7]
  binding result: binds

B12: 1901_Glv1 (graft) human IgG1 (antibody, V domains shown)
VH: B1 VH with T28A, K38R, R40A, K43Q, D59N, S61T, E62G, Q65K, L107M, L115S
VL: B1 VL with Q42K, S43A, D60S, Y67S, F73L, A80P, V83F, V85T
notes: Tested as HEK293-6E supernatant; also called LCR1901_GLv1 mAb (IgG1)
[7]
  binding result: binds
